Assay: yeast display, Sf9 membrane polyspecificity reagent, FACS + sequencing; frameworks hold sequencing errors
Procedure, shortened: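 A synthetic nanobody library was expressed on Saccharomyces cerevisiae BJ5465 by galactose induction for 36–48 hours. The library was stained for 1 hour at 4 °C with 10% biotinylated, detergent-solubilized Sf9 membrane reagent and enriched with streptavidin microbeads before FACS. Low and high (top ~1%) gates were set on anti-HA fluorescence for expression and streptavidin fluorescence for reagent binding, and each polyreactivity label reflects the gate of origin.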

Row | Sequence | polyreactivity (PSR sort gate)
1 | QVQLVESGGGLVHAGGSLRLSCAASGFTFTAYARGWYRQATGKERELVAAINWSGSRTYNADSVKGRFTISRDNAKNTVYLQMNSLKPEDSAVYYCNTATSKSSYRHYDYWGQGTLVTVSS | high polyreactivity
2 | QVQLVESGGGLVHAGGSLRLSCAASGFTFVFYVMGWYRQAPGQERELVAGISGRGASTYYADSVKGRFTISRDNAKNTVYLQMNSLIPEDTAVYYCNAVHWGGTYWGLDYWGQGTQVTVSS | low polyreactivity
3 | QVQLVESGGGLVHAGGSLRLSCAASGFTFWYYTMGWYRQAPGKERELVAAITASGGNTYYADSVKGRFTISRDNAKNTVYLQMYSLKPEDTAVYYSNAVSLKFTRKYDYWGQGPQVTVSS | high polyreactivity
4 | QVQLVESGGGLVHAGGSLRLSCAASGFTFYRNTMGWYRQAPGKERELVAAISTRAGSTYYADSVKGRFTISRDNAKNTVYLQMNSLKPEDTAVYYCAVLTYRGRFEYWGQGTQVTVSS | high polyreactivity
5 | QVQLVESGGGLVHAGGSLRLSCAASGGIFAGNVMGWDRQAPGKERYLVAAIDGDGRTYYADSVKGRFTISRDNAKNTVYLQMYSQKPEDTAVYYCAADAGVRGQYDDIDEGNYWGLGTQVTVSS | low polyreactivity
6 | QVQLVESGGGLVHAGGSLRLSCAASGGTFDVNAMGWYRQAPGKERELVATISGGGSTNYADSVNGRFTISRDNAKNSVYLQINSLKPEDTAVYYCAAESEPIRNRERDYWGQGTQVSVSS | low polyreactivity
7 | QVQLVESGGGLVHAGGSLRLSCAASGGTFGYYAMGWYRQAPGQERDLVAAISGSGGSTYYADSVKGRYTISRDHAKNTFYFQMNSLKPEDTAVYYCNAYIFGEVPNNYYWGQGTQVTVSS | high polyreactivity
8 | QVQLVESGGGLVHAGGSLRLSCAASGIILSDNSMGWYRQAPGKEREVVAAITGSGGSTYYADSVKGRFTISRDNAKNTVYLQMNSLKPEDTAVYYCAADGPYGYYYGHYGYWGQGTQVTVSS | low polyreactivity
9 | QVQLVESGGGLVHAGGSLRLSCAASGITLVRYAMGWYRQAPGKERELVAAISSSGGSTYYADSVKGRFTISRDNAKNTVYLQMNSLKPEDTAVYYCNAYVHSRRVEFNYWGQGTQVTVSS | high polyreactivity
10 | QVQLVESGGGLVHAGGSLRLSCAASGITSSQNAMGWYRQAPGKERELVAAISWRGGSTYYADSVKGRFTISRDNAKNNVYLQMNSLKAEDTAVYYCNVVKRSLRYDYWGQCTQVTVSS | high polyreactivity
11 | QVQLVESGGGLVHAGGSLRLSCAASGITYQAYAMGWYRQAPGKEREMVAAINDSGSSTYYADSVKGRFTISRDNAKNTVYLQMNSLKPEDTAVYYCAAYLWFWGQGTQVTVSS | low polyreactivity
12 | QVQLVESGGGLVHAGGSLRLSCAASGLIFRGYAMGWYRQAPGKERELVAAISKSGGSTYYADSVKGRFTISRDNAKNTVYLQLNSLKPEDTAVYYCITDYVWKYFLSSQYDYWGQGTQVTVSS | high polyreactivity
13 | QVQLVESGGGLVHAGGSLRLSCAASGLTFYRYAMGWYRQAPGKERELVAAIRSNVVTTYYADSVKGRFTISRDNAKNTVYLQMNSLKPEDTAVYYCAARFGRSAQPGYDYWGQGTQVTVSS | high polyreactivity
14 | QVQLVESGGGLVHAGGSLRLSCAASGNIPPGNAMGWYRQAPGKERELVAAITASDGSTYYADSEKGRFTISRDHDKNTVYLQMNSLKPEDTAVYYCAKEQVYTYYLEYEYWGQGTQVTVSS | high polyreactivity
15 | QVQLVESGGGLVHAGGSLRLSCAASGRIFATNVMGWYRQAPGKETEMVAAISRSGASTYYADSVKGRFTISRDNAKTSVYLQMNSLKPEDTAGYYCADRRFYYGDRYDYWGQGTQVTVSS | high polyreactivity
16 | QVQLVESGGGLVHAGGSLRLSCAASGRIFSYYTMGWYRQAPGKERELVAAITASDGDTYYADSVKGRFTISRDNAMNTVYLQMNSLKPEDTAVYYCAADFWYYHTRMDYWGKGTQVTVSS | low polyreactivity
17 | QVQLVESGGGLVHAGGSLRLSCAASGRIFVRYAMGWYRQAPGKERELVAAISSSGSSTYYADSVKGRFTISRDNAKNTVYLQMNSLKPEETAVYYCAAASVRYPRYEYWGQGTQVTVSS | high polyreactivity
18 | QVQLVESGGGLVHAGGSLRLSCAASGRTFKKYAMGLYRQAPGKERELVAAISWSGGTTYYADSVKGRFTISRDNAKNTVYLQMNSLKPEDTAVYYCAARVSRTGDGYYYYWGQGTQVTVSS | high polyreactivity
19 | QVQLVESGGGLVHAGGSLRLSCAASGRTFKVYAMGWYRQAPGKERELVASISRSGGSTYYSDSVKGRFTISRDIAKNTVFLQRNSLKPEDTAVYYCAADFCFYGSRVWEYDYWGQGTQVTVSS | high polyreactivity
20 | QVQLVESGGGLVHAGGSLRLSCAASGRTFRAYAMGWYRQAPRKERDLVAAISGGGGSTYYADSVKGRFTISRDNAKNTVYLQMNRLKPEYTAVYYCAVKGTQKLAKYNYWGQGTQVTVSS | high polyreactivity
21 | QVQLVESGGGLVHAGGSLRLSCAASGSIFAGYAMGRYRQAPGKERELVAAITSGGRTYYADSVKGRFTISRDNAKNTVYLQMNSLKPEDTAVYYCGKRWYTKTGYDYWGQGTQVTVSS | high polyreactivity
22 | QVQLVESGGGLVHAGGSLRLSCAASGSIFPPYAMGWYRQAPVKERELVAAITRSGGSTYYADSVKGRFTISRDNAKNTVYLQLNSLIPEDTAVSDCADRYPGGYGYWGQGTQVTVSS | high polyreactivity

Row | Sequence | polyreactivity (PSR sort gate)
23 | QVQLVESGGGLVHAGGSLRLSCAASGSIFTDYAMGWYRQAPGKERELVAVIDIDGSTYYADSVKGRFTISRDNEKNSVYLQMNSLKPEDTAVYYCAAGYTYYSLYGYWGQGTQVTVSS | low polyreactivity
24 | QVQLVESGGGLVHAGGSLRLSCAASGSIFTVNAMGWYRQAPGKERELVAAIDGSSGSTNYADSEKGRFTISRDNAKNTVYLQMNSLKPEDTAVYYCAADWSYEYGYWGQGTQVTVSS | low polyreactivity
25 | QVQLVESGGGLVHAGGSLRLSCAASGSIFYHYAMGWYRQAPGKERELVAAITWSGGSTYYADSVKGRFTISRDNAKNTVYLQMNSLKPEDTAVYYCATSSNVEFGYWGQGTQVTVSS | low polyreactivity
26 | QVQLVESGGGLVHAGGSLRLSCAASGSIFYRYAKGWYIQAPGKERDLVAAITYSGGRTYYADSVKGRFTISRDNAKNSVYLKMNILKPEDTAVYYCAAEKQSYGSPKGYDYWGQGTQVTVSS | low polyreactivity
27 | QVQLVESGGGLVHAGGSLRLSCAASGSIFYYYAMGWYRPAPGKERELVAAIYNGGSTYYADSVKGRFTISRDNAKNTVYLEMNSLKPEDTAVYYCNAGYSYWYRDLGYDSWGQGTQVTVSS | low polyreactivity
28 | QVQLVESGGGLVHAGGSLRLSCAASGSIYIFNAMGWYRQAPGKEREFVARIRRDSSTYYADSVKGRFTISRDNAKNTVYLQMNSLKPEDTAVYYCAAKRVYRRVELNSWGQGTQVTVSS | low polyreactivity
29 | QVQLVESGGGLVHAGGSLRLSCAASGSTFAYNAMGWYRQAPGKERELVDAIDWSDGITYYADSVKGRFTISRDNAKNTVYLQMNSLKPEDTAVYYCAAEDGYTDSRAYGYDYWGQGTQVTVSL | low polyreactivity
30 | QVQLVESGGGLVHAGGSLRLSCAASGSTFDPNAMGWYRQAPGKERELVAAISWSGGSTYYADSVKGRFTISRDNAKNTVYLQMNSQKPEYTAVYYCNAQFYVSYSYTNDYWGQGTQVTVSS | low polyreactivity
31 | QVQLVESGGGLVHAGGSLRLSCAASGSTFGYYAIGWNRQAPGKERELVAVITGSGGSTYYADSVKGRFTISRDYAKNTVYLQMNSLKPEDTAVYYCAARRWNPTYEYWGQGTQVTVSS | high polyreactivity
32 | QVQLVESGGGLVHAGGSLRLSCAASGSTFHRYAMGWYRQAPGKERELVARINGSGGSTYYADSVKGRFTISRDNAKNSVYLQMNSLIPEDTAVYYCAAELDVYVSIGSRFHFDYWGQGTQVTVSS | low polyreactivity
33 | QVQLVESGGGLVHAGGSLRLSCAASGSTFIRNAMGWYRQAPGKERELVAAISSSGGRTYYADSVKGRITISRDNAKNTVYVQMNSLKPEDTAVYYCAARYVPPWGRRYYYWGQGTQVTVSS | high polyreactivity
34 | QVQLVESGGGLVHAGGSLRLSCAASGSTFPAYAMGWYRQAPGKERELVAGITRGGSTYYADSVKGRFTISRDNAKNTVYLQMNSLKPEDSAVYYCAAYVLPWRGRGQTEYGYWGQGTQVTVSS | low polyreactivity
35 | QVQLVESGGGLVHAGGSLRLSCAASGSTFYYNAMGWNRPAPGKETELVARISRSGGSTYADSVKGRFTISRDNAKNTVYLQMNSLKPEDTAVYYCNADAYGTPEFTSYAVRYDYWGQGTQVTVSS | low polyreactivity
36 | QVQLVESGGGLVHAGGSLRLSCAASGSTYGGNAMGWYRQAPGKETELVASITRSGGSTYYADSVKGRFTISRDNAKNTVYLQMNSLKPEDTSVYYCAAGKWYRSPWKYDYWGQGTQVTVSS | low polyreactivity
37 | QVQLVESGGGLVHAGGSLRLSCAASGTISAYAMGWYRPAPGKERELVAAISYSGGSTYYADSVKGRFTISRDNAKKTVYLQMNSLKPEDTAVYYCNARARWYYPYKTYYYWGQGTQVTVSS | high polyreactivity
38 | QVQLVESGGGLVHAGGSLRLSCAASGYTFQWYDMGWYRQAPGKERELVASISWRGGSTYYADSVKGRFTISRDHAKNTVYLQMNSLKPEDTAVYYCAASLWPDYEYDYWGQGTQVTVSS | low polyreactivity
39 | QVQLVESGGGLVHAGGSLRLSCAASRFIFYYYALGWYRQAPGKERELVAVITSGGSTNYADSVKGRFTISRDNAKNTVYLQMNSLKPEDTAVYYCAARSRRRDDSWGQGTQVTVSS | high polyreactivity
40 | QVQLVESGGGLVHAGGSLRLSCAPSGFTLVSYAMGWHRKAPGKEREFDAGITDSGGSTYYADSVKGRYTITRDNAKNTFYLQMNSLKPVDTAVYYCKADFAPWDKQDYPYDYDYWGQGTQVTVSS | low polyreactivity
41 | QVQLVESGGGLVHAGGSLRLSCASSGSIFYYYAMGWYRQAPGKERELVASITSSGGTTSYADSVKGRYTISRDNAKNTVYLLMNSLKPEDTAVYYCNAQVYRYRIGYDYWGQCTQVTVSS | low polyreactivity
42 | QVQLVESGGGLVHAGGSLRLSCDASGLIFYGYAMGWYRQAPGKERQLVADITYSGGRTYYADSVKGRFSISRDNAKNTVYFQMHSLKAEDTAVYYCNARHRSHSNSQPGWKYVYWGQGTQVTVSS | low polyreactivity
43 | QVQLVESGGGLVHAGGSLRLSCSASGSTLRFNAMGWYRQAPGKVREFVATITRRGGSTYYADSEKGRFTISRDNAKNTVYLQMNSLKPEDTAVYYCAADRGGYSVLGGYWGQGTQVTVSS | high polyreactivity

From the nanobody polyreactivity screen of Harvey et al. (2022)
